Drawing on US20150344570A1 (published 2015), this text covers He/Con_2aR for 40 molecules.

For the experiment, the target named is T1, FcγRIIa R (human, UniProt P12318 34-217).
T1 construct: extracellular domain; also called FcgRIIa R type; 2aR
T1 sequence (looked up): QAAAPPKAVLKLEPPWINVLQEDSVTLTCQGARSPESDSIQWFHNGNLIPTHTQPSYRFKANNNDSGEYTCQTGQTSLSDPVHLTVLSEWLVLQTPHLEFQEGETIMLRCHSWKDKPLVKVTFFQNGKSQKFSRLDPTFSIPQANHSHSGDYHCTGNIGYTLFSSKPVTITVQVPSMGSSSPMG
As to the kind of experiment: SPR (Biacore), captured antibody, FcγR as analyte; relative binding activity. (Surface plasmon resonance follows binding to a sensor surface in real time, without labels.)

B1: GpH7-A5/GpH7-B3 variant K334_19Q/GpL16-k0 (antibody, human IgG1, kappa)
heavy 1: not shown
heavy 2: not shown
light: DIVMTQSPLSLPVTPGEPASISCQASESLVHSNRNTYLHWYLQKPGQSPQLLIYKVSNRFSGVPDRFSGSGSGTDFTLKISRVEAEDVGVYYCSQNTHVPPTFGQGTKVEIERTVAAPSVFIFPPSDEQLKSGTASVVCLLNNFYPREAKVQWKVDNALQSGNSQESVTEQDSKDSTYSLSSTLTLSKADYEKHKVYACEVTHQGLSSPVTKSFNRGEC
notes: also called He Ab K334_19Q
Turning to B1, the He/Con_2aR is 109 % (GpH7-A5/GpH7-B3/GpL16-k0 = 100).

B2: GpH7-A5/GpH7-B3 variant L235_15Y/GpL16-k0 (antibody, human IgG1, kappa)
heavy 1: not shown
heavy 2: not shown
light: B1 light
notes: also called He Ab L235_15Y
On to B2, for which the He/Con_2aR is 129 % (GpH7-A5/GpH7-B3/GpL16-k0 = 100).

B3: GpH7-A5/GpH7-B3 variant N325_15Y/GpL16-k0 (antibody, human IgG1, kappa)
heavy 1: not shown
heavy 2: not shown
light: B1 light
notes: also called He Ab N325_15Y
With B3, the He/Con_2aR was 101 % (GpH7-A5/GpH7-B3/GpL16-k0 = 100).

B4: GpH7-A5/GpH7-B3 variant P238_09D/GpL16-k0 (antibody, human IgG1, kappa)
heavy 1: not shown
heavy 2: not shown
light: B1 light
notes: also called He Ab P238_09D
With B4, the He/Con_2aR is 148 % (GpH7-A5/GpH7-B3/GpL16-k0 = 100).

B5: GpH7-A5/GpH7-B3 variant L235_09D/GpL16-k0 (antibody, human IgG1, kappa)
heavy 1: not shown
heavy 2: not shown
light: B1 light
notes: also called He Ab L235_09D
Consider B5, for which the He/Con_2aR is 101 % (GpH7-A5/GpH7-B3/GpL16-k0 = 100).

B6: GpH7-A5/GpH7-B3 variant P271_08L/GpL16-k0 (antibody, human IgG1, kappa)
heavy 1: not shown
heavy 2: not shown
light: B1 light
notes: also called He Ab P271_08L
As for B6, the He/Con_2aR was 104 % (GpH7-A5/GpH7-B3/GpL16-k0 = 100).

B7: GpH7-A5/GpH7-B3 variant N325_03V/GpL16-k0 (antibody, human IgG1, kappa)
heavy 1: not shown
heavy 2: not shown
light: B1 light
notes: also called He Ab N325_03V
With B7, the He/Con_2aR was 108 % (GpH7-A5/GpH7-B3/GpL16-k0 = 100).

B8: GpH7-A5/GpH7-B3 variant N325_06M/GpL16-k0 (antibody, human IgG1, kappa)
heavy 1: not shown
heavy 2: not shown
light: B1 light
notes: also called He Ab N325_06M
Regarding B8, the He/Con_2aR was 152 % (GpH7-A5/GpH7-B3/GpL16-k0 = 100).

B9: GpH7-A5/GpH7-B3 variant L235_20W/GpL16-k0 (antibody, human IgG1, kappa)
heavy 1: not shown
heavy 2: not shown
light: B1 light
notes: also called He Ab L235_20W
With B9, the He/Con_2aR is 131 % (GpH7-A5/GpH7-B3/GpL16-k0 = 100).

B10: GpH7-A5/GpH7-B3 variant P271_09D/GpL16-k0 (antibody, human IgG1, kappa)
heavy 1: not shown
heavy 2: not shown
light: B1 light
notes: also called He Ab P271_09D
With B10, the He/Con_2aR was 110 % (GpH7-A5/GpH7-B3/GpL16-k0 = 100).

B11: GpH7-A5/GpH7-B3 variant P238_16H/GpL16-k0 (antibody, human IgG1, kappa)
heavy 1: not shown
heavy 2: not shown
light: B1 light
notes: also called He Ab P238_16H
As to B11, the He/Con_2aR was 122 % (GpH7-A5/GpH7-B3/GpL16-k0 = 100).

B12: GpH7-A5/GpH7-B3 variant P238_15Y/GpL16-k0 (antibody, human IgG1, kappa)
heavy 1: not shown
heavy 2: not shown
light: B1 light
notes: also called He Ab P238_15Y
In the case of B12, the He/Con_2aR is 156 % (GpH7-A5/GpH7-B3/GpL16-k0 = 100).

B13: GpH7-A5/GpH7-B3 variant P238_04F/GpL16-k0 (antibody, human IgG1, kappa)
heavy 1: not shown
heavy 2: not shown
light: B1 light
notes: also called He Ab P238_04F
For the molecule B13, the He/Con_2aR is 174 % (GpH7-A5/GpH7-B3/GpL16-k0 = 100).

B14: GpH7-A5/GpH7-B3 variant N325_10E/GpL16-k0 (antibody, human IgG1, kappa)
heavy 1: not shown
heavy 2: not shown
light: B1 light
notes: also called He Ab N325_10E
As to B14, the He/Con_2aR was 105 % (GpH7-A5/GpH7-B3/GpL16-k0 = 100).

B15: GpH7-A5/GpH7-B3 variant L328_02A/GpL16-k0 (antibody, human IgG1, kappa)
heavy 1: not shown
heavy 2: not shown
light: B1 light
notes: also called He Ab L328_02A
On to B15, for which the He/Con_2aR was 117 % (GpH7-A5/GpH7-B3/GpL16-k0 = 100).

B16: GpH7-A5/GpH7-B3 variant L328_14T/GpL16-k0 (antibody, human IgG1, kappa)
heavy 1: not shown
heavy 2: not shown
light: B1 light
notes: also called He Ab L328_14T
On to B16, for which the He/Con_2aR is 119 % (GpH7-A5/GpH7-B3/GpL16-k0 = 100).

B17: GpH7-A5/GpH7-B3 variant N325_20W/GpL16-k0 (antibody, human IgG1, kappa)
heavy 1: not shown
heavy 2: not shown
light: B1 light
notes: also called He Ab N325_20W
Consider B17, for which the He/Con_2aR is 134 % (GpH7-A5/GpH7-B3/GpL16-k0 = 100).

B18: GpH7-A5/GpH7-B3 variant L235_04F/GpL16-k0 (antibody, human IgG1, kappa)
heavy 1: not shown
heavy 2: not shown
light: B1 light
notes: also called He Ab L235_04F
For the molecule B18, the He/Con_2aR was 114 % (GpH7-A5/GpH7-B3/GpL16-k0 = 100).

B19: GpH7-A5/GpH7-B3 variant N325_08L/GpL16-k0 (antibody, human IgG1, kappa)
heavy 1: not shown
heavy 2: not shown
light: B1 light
notes: also called He Ab N325_08L
For B19, the He/Con_2aR was 144 % (GpH7-A5/GpH7-B3/GpL16-k0 = 100).

B20: GpH7-A5/GpH7-B3 variant P238_06M/GpL16-k0 (antibody, human IgG1, kappa)
heavy 1: not shown
heavy 2: not shown
light: B1 light
notes: also called He Ab P238_06M
Regarding B20, the He/Con_2aR is 139 % (GpH7-A5/GpH7-B3/GpL16-k0 = 100).

B21: GpH7-A5/GpH7-B3 variant P238_10E/GpL16-k0 (antibody, human IgG1, kappa)
heavy 1: not shown
heavy 2: not shown
light: B1 light
notes: also called He Ab P238_10E
B21: the He/Con_2aR is 151 % (GpH7-A5/GpH7-B3/GpL16-k0 = 100).

B22: GpH7-A5/GpH7-B3 variant L234_04F/GpL16-k0 (antibody, human IgG1, kappa)
heavy 1: not shown
heavy 2: not shown
light: B1 light
notes: also called He Ab L234_04F
As for B22, the He/Con_2aR was 104 % (GpH7-A5/GpH7-B3/GpL16-k0 = 100).

B23: GpH7-A5/GpH7-B3 variant P271_10E/GpL16-k0 (antibody, human IgG1, kappa)
heavy 1: not shown
heavy 2: not shown
light: B1 light
notes: also called He Ab P271_10E
Consider B23, for which the He/Con_2aR was 103 % (GpH7-A5/GpH7-B3/GpL16-k0 = 100).

B24: GpH7-A5/GpH7-B3 variant N325_04F/GpL16-k0 (antibody, human IgG1, kappa)
heavy 1: not shown
heavy 2: not shown
light: B1 light
notes: also called He Ab N325_04F
For B24, the He/Con_2aR was 120 % (GpH7-A5/GpH7-B3/GpL16-k0 = 100).

B25: GpH7-A5/GpH7-B3 variant N325_07I/GpL16-k0 (antibody, human IgG1, kappa)
heavy 1: not shown
heavy 2: not shown
light: B1 light
notes: also called He Ab N325_07I
B25: the He/Con_2aR is 133 % (GpH7-A5/GpH7-B3/GpL16-k0 = 100).

B26: GpH7-A5/GpH7-B3 variant L328_10E/GpL16-k0 (antibody, human IgG1, kappa)
heavy 1: not shown
heavy 2: not shown
light: B1 light
notes: also called He Ab L328_10E
For the molecule B26, the He/Con_2aR is 105 % (GpH7-A5/GpH7-B3/GpL16-k0 = 100).

B27: GpH7-A5/GpH7-B3 variant N325_14T/GpL16-k0 (antibody, human IgG1, kappa)
heavy 1: not shown
heavy 2: not shown
light: B1 light
notes: also called He Ab N325_14T
B27: the He/Con_2aR is 105 % (GpH7-A5/GpH7-B3/GpL16-k0 = 100).

B28: GpH7-A5/GpH7-B3 variant L234_10E/GpL16-k0 (antibody, human IgG1, kappa)
heavy 1: not shown
heavy 2: not shown
light: B1 light
notes: also called He Ab L234_10E
For the molecule B28, the He/Con_2aR was 112 % (GpH7-A5/GpH7-B3/GpL16-k0 = 100).

B29: GpH7-A5/GpH7-B3 variant L234_20W/GpL16-k0 (antibody, human IgG1, kappa)
heavy 1: not shown
heavy 2: not shown
light: B1 light
notes: also called He Ab L234_20W
Regarding B29, the He/Con_2aR was 108 % (GpH7-A5/GpH7-B3/GpL16-k0 = 100).

B30: GpH7-A5/GpH7-B3 variant K334_20W/GpL16-k0 (antibody, human IgG1, kappa)
heavy 1: not shown
heavy 2: not shown
light: B1 light
notes: also called He Ab K334_20W
Turning to B30, the He/Con_2aR was 105 % (GpH7-A5/GpH7-B3/GpL16-k0 = 100).

B31: GpH7-A5/GpH7-B3 variant P238_19Q/GpL16-k0 (antibody, human IgG1, kappa)
heavy 1: not shown
heavy 2: not shown
light: B1 light
notes: also called He Ab P238_19Q
Regarding B31, the He/Con_2aR was 104 % (GpH7-A5/GpH7-B3/GpL16-k0 = 100).

B32: GpH7-A5/GpH7-B3 variant P238_20W/GpL16-k0 (antibody, human IgG1, kappa)
heavy 1: not shown
heavy 2: not shown
light: B1 light
notes: also called He Ab P238_20W
B32: the He/Con_2aR was 117 % (GpH7-A5/GpH7-B3/GpL16-k0 = 100).

B33: GpH7-A5/GpH7-B3 variant P331_03V/GpL16-k0 (antibody, human IgG1, kappa)
heavy 1: not shown
heavy 2: not shown
light: B1 light
notes: also called He Ab P331_03V
Turning to B33, the He/Con_2aR is 114 % (GpH7-A5/GpH7-B3/GpL16-k0 = 100).

B34: GpH7-A5/GpH7-B3 variant L328_09D/GpL16-k0 (antibody, human IgG1, kappa)
heavy 1: not shown
heavy 2: not shown
light: B1 light
notes: also called He Ab L328_09D
With B34, the He/Con_2aR is 119 % (GpH7-A5/GpH7-B3/GpL16-k0 = 100).

B35: GpH7-A5/GpH7-B3 variant L234_09D/GpL16-k0 (antibody, human IgG1, kappa)
heavy 1: not shown
heavy 2: not shown
light: B1 light
notes: also called He Ab L234_09D
For B35, the He/Con_2aR was 122 % (GpH7-A5/GpH7-B3/GpL16-k0 = 100).

B36: GpH7-A5/GpH7-B3 variant N325_09D/GpL16-k0 (antibody, human IgG1, kappa)
heavy 1: not shown
heavy 2: not shown
light: B1 light
notes: also called He Ab N325_09D
On to B36, for which the He/Con_2aR was 116 % (GpH7-A5/GpH7-B3/GpL16-k0 = 100).

B37: GpH7-A5/GpH7-B3 variant P238_03V/GpL16-k0 (antibody, human IgG1, kappa)
heavy 1: not shown
heavy 2: not shown
light: B1 light
notes: also called He Ab P238_03V
Turning to B37, the He/Con_2aR was 120 % (GpH7-A5/GpH7-B3/GpL16-k0 = 100).

B38: GpH7-A5/GpH7-B3 variant L328_13S/GpL16-k0 (antibody, human IgG1, kappa)
heavy 1: not shown
heavy 2: not shown
light: B1 light
notes: also called He Ab L328_13S
With B38, the He/Con_2aR was 117 % (GpH7-A5/GpH7-B3/GpL16-k0 = 100).

B39: GpH7-A5/GpH7-B3 variant N325_13S/GpL16-k0 (antibody, human IgG1, kappa)
heavy 1: not shown
heavy 2: not shown
light: B1 light
notes: also called He Ab N325_13S
Regarding B39, the He/Con_2aR was 143 % (GpH7-A5/GpH7-B3/GpL16-k0 = 100).

B40: GpH7-A5/GpH7-B3 variant P331_02A/GpL16-k0 (antibody, human IgG1, kappa)
heavy 1: not shown
heavy 2: not shown
light: B1 light
notes: also called He Ab P331_02A
For B40, the He/Con_2aR is 106 % (GpH7-A5/GpH7-B3/GpL16-k0 = 100).
